Measurements taken from CN117603358A.

Biological target: S蛋白, SARS-CoV-2原型毒株 (SARS-CoV-2 (prototype)) (UniProt P0DTC2)
Test: cell-based or functional assay

Work on LY-CoV1404 (antibody) yielded a 假病毒中和活性 IC50 of 1.19 ng/mL.
